Test results as given in PMC8873214, “RIOX1-demethylated cGAS regulates ionizing radiation-elicited DNA repair” (Bone Research, 2022).

Target: T1, purified K491me-bearing Flag-cGAS (mouse, UniProt Q8C6L5 1-507, monomethyl-lysine at K491)
T1 construct: cyclic GMP-AMP synthase (cGAS), mouse (K491 is the mouse numbering); also called K491me-bearing cGAS; purified Flag-cGAS protein methylated by His-SET7; source: bacterially purified, then methylated in vitro with purified His-SET7
Assay: pull-down; purified Flag-cGAS methylated in vitro by purified His-SET7, incubated with purified SGF29, then with biotin-PAR; streptavidin pulldown, immunoblot; binding of SGF29 read from the loss of PAR-bound cGAS
Conditions: both partners purified

T1 sequence (Q8C6L5 whole entry): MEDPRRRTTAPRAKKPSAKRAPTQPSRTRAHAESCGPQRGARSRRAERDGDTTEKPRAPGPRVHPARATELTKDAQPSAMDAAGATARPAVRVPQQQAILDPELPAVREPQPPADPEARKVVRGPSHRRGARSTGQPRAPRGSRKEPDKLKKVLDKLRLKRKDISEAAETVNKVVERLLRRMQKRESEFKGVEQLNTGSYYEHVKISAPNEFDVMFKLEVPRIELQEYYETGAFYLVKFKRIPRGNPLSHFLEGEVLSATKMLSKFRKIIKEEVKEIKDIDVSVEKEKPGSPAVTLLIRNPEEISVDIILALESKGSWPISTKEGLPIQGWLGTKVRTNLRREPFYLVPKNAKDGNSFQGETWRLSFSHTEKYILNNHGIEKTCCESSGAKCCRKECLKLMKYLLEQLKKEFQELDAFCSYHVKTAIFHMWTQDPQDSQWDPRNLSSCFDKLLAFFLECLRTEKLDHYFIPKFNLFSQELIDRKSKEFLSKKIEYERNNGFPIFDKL

binding result: binds
B1: purified His-SGF29 protein (natural protein, mouse, UniProt Q9DA08 1-293, looked up)
chain: MALVSADSRIAELLTELHQLIKQTQEERSRSEHNLVNIQKTHERMQTENKISPYYRTKLRGLYTTAKTDAEAECNILRKALDKIAEIKSLLEERRIAAKIAGLYNDSEPPRKTMRRGVLMTLLQQSAMTLPLWIGKPGDKPPPLCGAIPASGDYVAKPGDKVAARVKAVEGDEQWILAEVVSYSHATNKYEVDDIDEEGKERHTLSRRRIIPLPQWKANPETDPEALFQKEQLVLALYPQTTCFYRALIHTPPQRPQDDYSVLFEDTSYADGYSPPLNVAQRYVVACKEPKKK
notes: SAGA complex-associated factor 29 (SGF29); mouse and human SGF29 were cloned; also called purified WT SGF29 protein; source: E. coli BL21(DE3), purified
